The text below walks through data of patent EP1007090B1 (Biogen Idec Inc., dated 2009).

Experiment [1] concerns the target T1, B7.1/Ig fusion protein (human, UniProt P33681 35-242, limits assumed).
T1 construct: Secreted by CHO cells; also called B7-Ig; 125I-B7.1Ig; not shown: human immunoglobulin CH2 and CH3
T1 sequence (looked up): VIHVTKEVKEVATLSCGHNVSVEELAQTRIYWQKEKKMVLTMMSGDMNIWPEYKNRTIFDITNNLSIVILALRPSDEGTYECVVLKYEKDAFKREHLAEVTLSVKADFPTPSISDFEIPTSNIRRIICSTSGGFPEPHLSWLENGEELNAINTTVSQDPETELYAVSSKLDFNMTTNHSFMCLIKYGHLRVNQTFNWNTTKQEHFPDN
Description: Scatchard analysis, binding to B7-Ig coated plates.

For experiment [2], the target named is T1, B7.1/Ig fusion protein. Briefly: Scatchard analysis, binding to B7-Ig coated plates. The source holds these as a separate data set.

Read-outs that look alike come from different tables or passages of the source.

B1: monkey monoclonal antibody 7B6 (antibody, V domains shown)
VH: EVQLVESGGGLVQPGGSLRVSCAVSGFTFSDHYMYWFRQAPGKGPEWVGFIRNKPNGGTTEYAASVKDRFTISRDDSKSIAYLQMSSLKIEDTAVYYCTTSYISHCRGGVCYGGYFEFWGQGALVTVSS
VL: EVVMTQSPLSLPITPGEPASISCRSSQSLKHSNGDTFLSWYQQKPGQPPRLLIYKVSNRDSGVPDRFSGSGAGTDFTLKISAVEAEDVGVYFCGQGTRTPPTFGGGTKVEIK
For B1, the dissociation constant (Kd) with B7.1/Ig fusion protein [1] and with B7.1/Ig fusion protein [2] was around 10.7 nM each time.

The Kd is the equilibrium constant for the complex coming apart. Read a high Kd as lower affinity.
